Target: huFcγRIIa-131H (His-tagged, soluble, captured for SPR) (human) (UniProt P12318)
Assay: SPR, His-tagged FcγR captured by anti-His antibody, antibody injected

Sequence of huFcγRIIa-131H (His-tagged, soluble, captured for SPR) (human) (P12318 34-217 limits assumed): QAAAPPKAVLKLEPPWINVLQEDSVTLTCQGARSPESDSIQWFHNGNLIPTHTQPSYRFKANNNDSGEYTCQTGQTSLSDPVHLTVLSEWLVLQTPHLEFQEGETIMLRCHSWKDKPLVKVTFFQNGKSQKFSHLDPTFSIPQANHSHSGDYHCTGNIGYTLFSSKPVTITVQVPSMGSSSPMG

Kd: 25 µM
Substance: huIgG2 control (antibody)
